{"source": "ChEMBL document CHEMBL4825729", "about": "“Modulators of immunoregulatory exonucleases PLD3 and PLD4 identified by high-throughput screen” (Bioorg Med Chem Lett, 2021)", "key": {"5'-3' exonuclease PLD3 [1]": {"target": "T1, 5'-3' exonuclease PLD3 (Homo sapiens, UniProt Q8IV08)", "T1 sequence (Q8IV08 whole entry)": "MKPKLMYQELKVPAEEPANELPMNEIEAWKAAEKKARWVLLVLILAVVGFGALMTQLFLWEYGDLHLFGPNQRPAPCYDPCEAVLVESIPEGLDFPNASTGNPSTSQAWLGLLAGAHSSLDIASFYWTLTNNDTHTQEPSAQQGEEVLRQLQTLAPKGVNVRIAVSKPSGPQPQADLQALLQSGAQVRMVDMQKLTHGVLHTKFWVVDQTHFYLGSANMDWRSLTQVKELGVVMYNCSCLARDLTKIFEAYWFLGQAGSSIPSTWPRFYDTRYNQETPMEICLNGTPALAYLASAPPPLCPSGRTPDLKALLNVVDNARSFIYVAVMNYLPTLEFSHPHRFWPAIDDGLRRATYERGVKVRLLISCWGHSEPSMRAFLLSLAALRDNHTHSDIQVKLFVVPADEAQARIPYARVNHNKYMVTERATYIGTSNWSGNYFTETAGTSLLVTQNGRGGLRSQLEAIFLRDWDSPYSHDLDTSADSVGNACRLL", "assay": "Activation of PLD3 (unknown origin) using 3'-dT-MUP as substrate by fluorescence-based screening assay"}, "5'-3' exonuclease PLD4 [2]": {"target": "T2, 5'-3' exonuclease PLD4 (Homo sapiens, UniProt Q96BZ4)", "T2 sequence (Q96BZ4 whole entry)": "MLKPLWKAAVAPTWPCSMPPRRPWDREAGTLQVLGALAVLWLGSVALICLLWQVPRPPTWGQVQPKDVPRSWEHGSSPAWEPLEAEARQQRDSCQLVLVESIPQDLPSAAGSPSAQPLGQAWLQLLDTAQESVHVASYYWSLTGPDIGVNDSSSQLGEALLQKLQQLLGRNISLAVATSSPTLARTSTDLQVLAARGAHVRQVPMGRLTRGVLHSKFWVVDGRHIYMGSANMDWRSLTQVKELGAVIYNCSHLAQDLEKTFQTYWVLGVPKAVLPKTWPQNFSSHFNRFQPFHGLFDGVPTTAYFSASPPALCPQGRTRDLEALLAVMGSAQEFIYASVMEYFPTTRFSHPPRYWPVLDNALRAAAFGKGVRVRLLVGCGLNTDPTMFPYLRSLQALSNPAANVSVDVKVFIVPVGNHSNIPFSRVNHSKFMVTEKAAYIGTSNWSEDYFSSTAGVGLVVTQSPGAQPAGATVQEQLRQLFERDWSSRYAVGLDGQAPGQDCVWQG", "assay": "Activation of PLD4 (unknown origin) using 3'-dT-MUP as substrate by fluorescence-based screening assay"}, "[3]": {"target": "T3, 5'-3' exonuclease PLD3 (Homo sapiens) (UniProt Q8IV08)", "T3 sequence (whole entry)": "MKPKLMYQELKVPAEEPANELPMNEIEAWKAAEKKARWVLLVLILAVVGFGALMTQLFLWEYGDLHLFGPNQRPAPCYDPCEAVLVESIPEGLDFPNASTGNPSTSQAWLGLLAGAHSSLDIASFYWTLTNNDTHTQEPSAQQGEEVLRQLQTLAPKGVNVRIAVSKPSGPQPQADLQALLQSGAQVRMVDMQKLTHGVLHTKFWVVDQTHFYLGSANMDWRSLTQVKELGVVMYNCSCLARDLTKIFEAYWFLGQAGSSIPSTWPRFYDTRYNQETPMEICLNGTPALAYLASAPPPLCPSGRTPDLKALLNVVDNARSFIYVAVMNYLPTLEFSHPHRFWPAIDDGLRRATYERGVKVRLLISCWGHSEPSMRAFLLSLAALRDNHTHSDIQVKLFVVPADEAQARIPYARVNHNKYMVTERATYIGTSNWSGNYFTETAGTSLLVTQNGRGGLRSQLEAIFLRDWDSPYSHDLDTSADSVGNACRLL", "assay": "Activation of PLD3 (unknown origin) assessed as association constant using varying concentration 3'-dT-MUP as substrate by fluorescence-based screening assay", "conditions": "filed as activator; call rule not given here"}, "5'-3' exonuclease PLD3 [4]": {"target": "T1, 5'-3' exonuclease PLD3", "assay": "Activation of PLD3 (unknown origin) using 3'-dT-nNPP as substrate by fluorescence-based screening assay"}, "5'-3' exonuclease PLD4 [5]": {"target": "T2, 5'-3' exonuclease PLD4", "assay": "Activation of PLD4 (unknown origin) using 3'-dT-nNPP as substrate by fluorescence-based screening assay"}, "[6]": {"substrate": "Cc1cn([C@H]2C[C@H](O)[C@@H](COP(=O)(O)Oc3ccc([N+](=O)[O-])cc3)O2)c(=O)[nH]c1=O", "assay": "(§1) Substrate activity at PLD3 (unknown origin) assessed as Kcat by Michaelis-Menten kinetic model based fluorescence assay", "conditions": "Homo sapiens"}, "[7]": {"substrate": "Cc1cn([C@H]2C[C@H](OP(=O)(O)Oc3ccc([N+](=O)[O-])cc3)[C@@H](CO)O2)c(=O)[nH]c1=O", "assay": "as §1", "conditions": "Homo sapiens"}, "[8]": {"substrate": "Cc1cn([C@H]2C[C@H](O)[C@@H](COP(=O)(O)Oc3ccc([N+](=O)[O-])cc3)O2)c(=O)[nH]c1=O", "assay": "(§2) Substrate activity at PLD3 (unknown origin) assessed as Km by Michaelis-Menten kinetic model based fluorescence assay", "conditions": "Homo sapiens"}, "[9]": {"substrate": "Cc1cn([C@H]2C[C@H](OP(=O)(O)Oc3ccc([N+](=O)[O-])cc3)[C@@H](CO)O2)c(=O)[nH]c1=O", "assay": "as §2", "conditions": "Homo sapiens"}, "[10]": {"substrate": "Cc1cn([C@H]2C[C@H](O)[C@@H](COP(=O)(O)Oc3ccc([N+](=O)[O-])cc3)O2)c(=O)[nH]c1=O", "assay": "(§3) Substrate activity at PLD3 (unknown origin) assessed as ratio of Kcat to Km by Michaelis-Menten kinetic model based fluorescence assay", "conditions": "Homo sapiens"}, "[11]": {"substrate": "Cc1cn([C@H]2C[C@H](OP(=O)(O)Oc3ccc([N+](=O)[O-])cc3)[C@@H](CO)O2)c(=O)[nH]c1=O", "assay": "as §3", "conditions": "Homo sapiens"}, "[12]": {"compound": "Cc1nc(SCC(=O)N2CCC(C)CC2)c2ccsc2n1", "assay": "Activation of PLD3 (unknown origin) assessed as Km using varying concentration 3'-dT-MUP as substrate by fluorescence-based screening assay", "conditions": "Homo sapiens; filed as activator"}, "[13]": {"compound": "Cc1ccc(Cn2c(SCC(=O)O)nc3c2c(=O)n(C)c(=O)n3C)cc1", "assay": "(§4) Mixed type inhibition of PLD3 (unknown origin) assessed as Vmax using varying concentration 3'-dT-MUP as substrate by fluorescence-based screening assay", "conditions": "Homo sapiens"}, "[14]": {"compound": "Cc1cc(C)cc(N2CCn3c2nc2c3c(=O)n(CC(=O)O)c(=N)n2C)c1", "assay": "as §4", "conditions": "Homo sapiens"}, "[15]": {"compound": "Cc1nc(SCC(=O)N2CCC(C)CC2)c2ccsc2n1", "assay": "Activation of PLD3 (unknown origin) assessed as Vmax using varying concentration 3'-dT-MUP as substrate by fluorescence-based screening assay", "conditions": "Homo sapiens; filed as activator"}, "[16]": {"substrate": "Cc1cn([C@H]2C[C@H](O)[C@@H](COP(=O)(O)Oc3ccc([N+](=O)[O-])cc3)O2)c(=O)[nH]c1=O", "assay": "(§5) Substrate activity at PLD4 (unknown origin) assessed as Km by Michaelis-Menten kinetic model based fluorescence assay", "conditions": "Homo sapiens"}, "[17]": {"substrate": "Cc1cn([C@H]2C[C@H](OP(=O)(O)Oc3ccc([N+](=O)[O-])cc3)[C@@H](CO)O2)c(=O)[nH]c1=O", "assay": "as §5", "conditions": "Homo sapiens"}, "[18]": {"substrate": "Cc1cn([C@H]2C[C@H](O)[C@@H](COP(=O)(O)Oc3ccc([N+](=O)[O-])cc3)O2)c(=O)[nH]c1=O", "assay": "(§6) Substrate activity at PLD4 (unknown origin) assessed as Kcat by Michaelis-Menten kinetic model based fluorescence assay", "conditions": "Homo sapiens"}, "[19]": {"substrate": "Cc1cn([C@H]2C[C@H](OP(=O)(O)Oc3ccc([N+](=O)[O-])cc3)[C@@H](CO)O2)c(=O)[nH]c1=O", "assay": "as §6", "conditions": "Homo sapiens"}, "[20]": {"substrate": "Cc1cn([C@H]2C[C@H](O)[C@@H](COP(=O)(O)Oc3ccc([N+](=O)[O-])cc3)O2)c(=O)[nH]c1=O", "assay": "(§7) Substrate activity at PLD4 (unknown origin) assessed as ratio of Kcat to Km by Michaelis-Menten kinetic model based fluorescence assay", "conditions": "Homo sapiens"}, "[21]": {"substrate": "Cc1cn([C@H]2C[C@H](OP(=O)(O)Oc3ccc([N+](=O)[O-])cc3)[C@@H](CO)O2)c(=O)[nH]c1=O", "assay": "as §7", "conditions": "Homo sapiens"}, "[22]": {"compound": "Cc1cc(C)cc(N2CCn3c2nc2c3c(=O)n(CC(=O)O)c(=N)n2C)c1", "assay": "Competitive inhibition of PLD4 (unknown origin) assessed as Vmax using varying concentration 3'-dT-MUP as substrate by fluorescence-based screening assay", "conditions": "Homo sapiens"}}, "data": [{"molecule": "Cc1nc(SCC(=O)N2CCC(C)CC2)c2ccsc2n1", "values": [{"measurement": "EC50", "setting": "5'-3' exonuclease PLD3 [1]", "value": 12.8, "unit": "µM"}, {"measurement": "EC50", "setting": "5'-3' exonuclease PLD4 [2]", "value": 115, "unit": "µM"}, {"measurement": "Ka", "setting": "[3]", "value": 80.9, "unit": "µM"}, {"measurement": "EC50", "setting": "5'-3' exonuclease PLD3 [4]", "value": 19.6, "unit": "µM"}, {"measurement": "EC50", "setting": "5'-3' exonuclease PLD4 [5]", "value": "Not Active"}]}, {"molecule": "5'-3' exonuclease PLD3 (Homo sapiens), Q8IV08 (protein) MKPKLMYQELKVPAEEPANELPMNEIEAWKAAEKKARWVLLVLILAVVGFGALMTQLFLWEYGDLHLFGPNQRPAPCYDPCEAVLVESIPEGLDFPNASTGNPSTSQAWLGLLAGAHSSLDIASFYWTLTNNDTHTQEPSAQQGEEVLRQLQTLAPKGVNVRIAVSKPSGPQPQADLQALLQSGAQVRMVDMQKLTHGVLHTKFWVVDQTHFYLGSANMDWRSLTQVKELGVVMYNCSCLARDLTKIFEAYWFLGQAGSSIPSTWPRFYDTRYNQETPMEICLNGTPALAYLASAPPPLCPSGRTPDLKALLNVVDNARSFIYVAVMNYLPTLEFSHPHRFWPAIDDGLRRATYERGVKVRLLISCWGHSEPSMRAFLLSLAALRDNHTHSDIQVKLFVVPADEAQARIPYARVNHNKYMVTERATYIGTSNWSGNYFTETAGTSLLVTQNGRGGLRSQLEAIFLRDWDSPYSHDLDTSADSVGNACRLL", "values": [{"measurement": "kcat/Km", "setting": "[6]", "value": 34.8, "unit": "M⁻¹ s⁻¹"}, {"measurement": "kcat/Km", "setting": "[7]", "value": 6.26, "unit": "M⁻¹ s⁻¹"}, {"measurement": "Km", "setting": "[8]", "value": 1350, "unit": "µM"}, {"measurement": "Km", "setting": "[9]", "value": 302, "unit": "µM"}, {"measurement": "kcat", "setting": "[10]", "value": 74.5, "unit": "s⁻¹"}, {"measurement": "kcat", "setting": "[11]", "value": 18.9, "unit": "s⁻¹"}, {"measurement": "Km", "setting": "[12]", "value": 14.7, "unit": "µM"}, {"measurement": "Vmax", "setting": "[13]", "value": "313 /RU/s"}, {"measurement": "Vmax", "setting": "[14]", "value": "318 /RU/s"}, {"measurement": "Vmax", "setting": "[15]", "value": "327 /RU/s"}]}, {"molecule": "5'-3' exonuclease PLD4 (Homo sapiens), Q96BZ4 (protein) MLKPLWKAAVAPTWPCSMPPRRPWDREAGTLQVLGALAVLWLGSVALICLLWQVPRPPTWGQVQPKDVPRSWEHGSSPAWEPLEAEARQQRDSCQLVLVESIPQDLPSAAGSPSAQPLGQAWLQLLDTAQESVHVASYYWSLTGPDIGVNDSSSQLGEALLQKLQQLLGRNISLAVATSSPTLARTSTDLQVLAARGAHVRQVPMGRLTRGVLHSKFWVVDGRHIYMGSANMDWRSLTQVKELGAVIYNCSHLAQDLEKTFQTYWVLGVPKAVLPKTWPQNFSSHFNRFQPFHGLFDGVPTTAYFSASPPALCPQGRTRDLEALLAVMGSAQEFIYASVMEYFPTTRFSHPPRYWPVLDNALRAAAFGKGVRVRLLVGCGLNTDPTMFPYLRSLQALSNPAANVSVDVKVFIVPVGNHSNIPFSRVNHSKFMVTEKAAYIGTSNWSEDYFSSTAGVGLVVTQSPGAQPAGATVQEQLRQLFERDWSSRYAVGLDGQAPGQDCVWQG", "values": [{"measurement": "kcat", "setting": "[16]", "value": 47, "unit": "s⁻¹"}, {"measurement": "kcat", "setting": "[17]", "value": 18.9, "unit": "s⁻¹"}, {"measurement": "Km", "setting": "[18]", "value": 860, "unit": "µM"}, {"measurement": "Km", "setting": "[19]", "value": 378, "unit": "µM"}, {"measurement": "kcat/Km", "setting": "[20]", "value": 86.6, "unit": "M⁻¹ s⁻¹"}, {"measurement": "kcat/Km", "setting": "[21]", "value": 5, "unit": "M⁻¹ s⁻¹"}, {"measurement": "Vmax", "setting": "[22]", "value": "1560 /RU/s"}]}]}
